Data as given in patent US11542537B2, “High-purity steviol glycosides” (PureCircle Sdn Bhd, priority 2012, dated 2023).

Legend:
Assay type in all cases: biochemical
[1] = Conversion of Rebaudioside E to Rebaudioside D with UGT76G1 lysate; conditions: 500 μL UGT76G1 thawed lysate, 0.5 mM Rebaudioside E, 30° C., pH 7.5
Procedure: The total volume of the reaction was 5.0 mL with the following composition: 100 mM potassium phosphate buffer pH 7.5, 3 mM MgCl2, 2.5 mM UDP-glucose, 0.5 mM Rebaudioside E and 500 μL of UGT76G1 thawed lysate (UGT76G1 gene was cloned in pET30a+ vector and expressed in E. coli BL21 (DE3)). The reactions were run at 30° C. on an orbitary shaker at 135 rpm. For sampling 300 μL of the reaction mixture was quenched with 30 μL of 2N H2SO4 and 270 μL of methanol/water (6/4). The samples were immediately centrifuged and kept at 10° C. before analysis by HPLC (CAD detection).

[2] = UGT76G1 lysate activity test, Stevioside to Rebaudioside A (HPLC); conditions: in-vivo produced UGT76G1 thawed lysate, 0.5 mM Stevioside, 30° C.
Procedure: The total volume of the reaction was 5.0 mL with the following composition: 50 mM sodium phosphate buffer pH 7.2, 3 mM MgCl2, 2.5 mM UDP-glucose, 0.5 mM Stevioside and 500 μL of UGT76G1 thawed lysate. The reactions were run at 30° C. on an orbitary shaker at 135 rpm. For each sample, 460 μL of the reaction mixture was quenched with 40 μL of 2N H2SO4 and 420 μL of methanol/water (6/4). The samples were immediately centrifuged and kept at 10° C. before analysis by HPLC (CAD).
(§1) Activity tests were performed on a 5 mL scale with 500 μL of thawed lysate for the transformation of Stevioside to Rebaudioside A and Rebaudioside D to Rebaudioside M using 0.5 mM of substrate, 2.5 mM of UDP-Glucose and 3 mM MgCl2 in 50 mM Sodium Phosphate buffer at pH 7.2. Samples were taken and analyzed by HPLC.

[3] = UGT76G1 activity test, Rebaudioside D to Rebaudioside M (HPLC); conditions: in-vitro produced UGT76G1, 0.5 mM Rebaudioside D, after 120 h
Procedure: The total volume of the reaction was 2 mL with the following composition: 50 mM sodium phosphate buffer pH 7.2, 3 mM MgCl2, 3.8 mM UDP-glucose, 0.5 mM Rebaudioside D and 180 μL of in-vitro produced UGT76G1. The reactions were run at 30° C. on an orbitary shaker at 135 rpm. For each sample, 400 μL of reaction mixture was quenched with 40 μL of 2N H2SO4 and 360 μL of 60% MeOH. After centrifugation, the supernatant was analyzed by HPLC (CAD).
as §1
5 mL of the lysate of Example 12 was used to transform Rebaudioside D to Rebaudioside M on a 50 mL scale. The reaction medium consisted of 50 mM Sodium Phosphate buffer pH 7.2, 3 mM of MgCl2, 2.5 mM of UDP-Glucose and 0.5 mM of Rebaudioside D. After allowing the reaction to be shaken at 30° C. for 90 h. 50 mL of ethanol was added and the resulting mixture was allowed to stir at −20° C. for 1 h. After centrifugation at 5000 g for 10 min. the supernatant was purified via ultrafiltration (Vivaflow MWCO 30000). […]

[4] = Catalytic test of in-vitro expressed UDP-glucosyltransferases, Rebaudioside A to Rebaudioside D (HPLC CAD); conditions: 0.5 mM Rebaudioside A, 30° C., T24h sample
Procedure: 18 μL of plasmid solution (containing approximately 1.5 μg of plasmid) was used for in-vitro expression according to the Promega S30 T7 High-Yield Protein Expression System (ref: L1110) kit. The expression medium was produced as follows:
The prepared expression medium mix was added to the plasmid solution and the solution was allowed to incubate at 30° C. for 3 hours while mixing the mixture every 45 minutes. 5 μL of the mixture was frozen whereas the remainder was used for the catalytic test for the conversion of Rebaudioside A to Rebaudioside D.
(§2) 430 μL of a reaction mixture containing 0.5 mM Rebaudioside A, 3 mM MgCl2, 50 mM phosphate buffer (pH7.2) and 2.5 mM UDP-glucose was added to a 1.5 mL sterile microtube. 52 μL of the enzyme expression medium was added and the resulting mixture was allowed to react at 30° C. for 24 hours. 125 μL samples were taken after 2 hours, 16 hours and 24 hours and added to a 115 μL of 60% methanol and 10 μL of 2 N H2SO4. The quenched sample was centrifuged at 18,000 g for 2 minutes at RT. 200 μL was transferred to an HPLC vial and analyzed.
The HPLC assay was performed as follows:
as §2, with “RT.” for “RT. 200 μL was transferred to an HPLC vial and analyzed.”
The HPLC assay was performed as described in EXAMPLE 20.

[5] = Activity for Rubusoside to Rebaudioside E conversion (UGTSL, UGTSL2, UGTLB lysates); conditions: based on initial concentration of Rubusoside; reaction time 45 h. (UGTSL), 2 h. (UGTSL2)
Procedure: Activity tests were performed at 3 mL scale with 600 μL of lysate for the transformation of Rubusoside using 0.5 mM of substrate, 2.5 mM of UDP-Glucose and 3 mM MgCl2 in 50 mM Sodium Phosphate buffer at pH 7.2. The HPLC assay was performed as described in EXAMPLE 20.
Activity tests were performed at 3 mL scale with 600 μL of lysate for the transformation of Rubusoside using 0.5 mM of substrate, 2.5 mM of UDP-Glucose and 3 mM MgCl2 in 50 mM Sodium Phosphate buffer at pH 7.2. Samples were taken and analyzed by HPLC. The corresponding chromatogram is depicted in FIG. 65.

[6] = LCMS of Stevioside conversion products with UGTSL, UGTSL2, UGTLB; conditions: UGTSL2 2 hrs, UGTLB 2 hrs, UGTSL 22 hrs
Procedure: (§3) Conversion of stevioside with UGTSL and UGTSL2 was conducted in similar manner to Example 28, and the conversion of rubusoside with UGTSL and UGTSL2 was conducted similarly to Example 29. Conversions of rubusoside and stevioside with UGTLB was conducted similarly to Example 32.
(§4) The reaction mixtures were analyzed by LCMS to determine all reaction products.

[7] = LCMS of Rubusoside conversion products with UGTSL, UGTSL2, UGTLB; conditions: UGTSL2 2 hrs, UGTLB 5 hrs, UGTSL 45 hrs
Procedure: as §3, §4

[8] = LC-MS of Rebaudioside A reaction mixtures of GI No. 460409128 (Example 23); conditions: for Steviol glycoside conversion in reaction mixture: Reb A: remaining substrate
Procedure: The reaction mixtures representing GI No. 460409128, particularly the sample “12400 S115N05A7 T24h 130627ABA” of EXAMPLE 20 (hereinafter S115N05A7), and the sample “12400 S129N04 T45h 130712ABA” of EXAMPLE 22 (hereinafter S129N04) were additionally assayed by LC-MS to identify the unknown glycosides. An Agilent 1200 series HPLC system, equipped with binary pump (G1312B), autosampler (G1367D), thermostatted column compartment (G1316B), DAD detector (G1315C), connected with Agilent 6110A MSD, and interfaced with “LC/MSD Chemstation” software, was used.

[9] = Catalytic reaction with in-vitro produced UGT91D2, Rebaudioside A to Rebaudioside D; conditions: in-vitro produced UGT91D2, 0.1 mM Rebaudioside A, after 120 h
Procedure: The total volume of the reaction was 0.5 mL with the following composition: 50 mM sodium phosphate buffer pH 7.2, 3 mM MgCl2, 3.8 mM UDP-glucose, 0.1 mM Rebaudioside A and 180 μL of in-vitro produced UGT91D2. The reactions were run at 30° C. on an orbitary shaker at 135 rpm. For each sample, 450 μL of reaction mixture was quenched with 45 μL of 2N H2SO4 and 405 μL of 60% MeOH. After centrifugation, the supernatant was analyzed by HPLC (CAD). HPLC indicated a 4.7% conversion of rebaudioside A to rebaudioside D after 120 h.

B1: UGT76G1: UDP-glucosyltransferase of Stevia rebaudiana, Genbank AAR06912.1, produced in E. coli or in vitro (protein, UniProt Q6VAB4 1-458, looked up)
UDP-glycosyltransferase 76G1: MENKTETTVRRRRRIILFPVPFQGHINPILQLANVLYSKGFSITIFHTNFNKPKTSNYPHFTFRFILDNDPQDERISNLPTHGPLAGMRIPIINEHGADELRRELELLMLASEEDEEVSCLITDALWYFAQSVADSLNLRRLVLMTSSLFNFHAHVSLPQFDELGYLDPDDKTRLEEQASGFPMLKVKDIKSAYSNWQILKEILGKMIKQTKASSGVIWNSFKELEESELETVIREIPAPSFLIPLPKHLTASSSSLLDHDRTVFQWLDQQPPSSVLYVSFGSTSEVDEKDFLEIARGLVDSKQSFLWVVRPGFVKGSTWVEPLPDGFLGERGRIVKWVPQQEVLAHGAIGAFWTHSGWNSTLESVCEGVPMIFSDFGLDQPLNARYMSDVLKVGVYLENGWERGEIANAIRRVMVDEEGEYIRQNARVLKQKADVSLMKGGSSYESLESLVSYISSL
**Q.** For B1, which “conversion of Rebaudioside E to Rebaudioside D (reaction profile)” value [1] is on record?
**A.** Its value is “complete conversion”.

**Q.** What about the “conversion of stevioside to rebaudioside A (HPLC)” value [2] of the same molecule?
**A.** Its value is “almost complete conversion”.

**Q.** What about the “conversion of rebaudioside D to rebaudioside M (HPLC)” value [3] of the same molecule?
**A.** The value was 80%.

B2: S115N05 A7: UGTSL, Solanum lycopersicum glycosyltransferase, SEQ ID 5; S129N04 is the sample of the in-vivo produced enzyme (protein, listed as Solanum lycopersicum)
chain: MSPKLHKELFFHSLYKKTRSNHTMATLKVLMFPFLAYGHISPYLNVAKKLADRGFLIYFCSTPINLKSTIEKIPEKYADSIHLIELHLPELPQLPPHYHTTNGLPPNLNQVLQKALKMSKPNFSKILQNLKPDLVIYDILQRWAKHVANEQNIPAVKLLTSGAAVFSYFFNVLKKPGVEFPFPGIYLRKIEQVRLSEMMSKSDKEKELEDDDDDDDLLVDGNMQIMLMSTSRTIEAKYIDFCTALTNWKVVPVGPPVQDLITNDVDDMELIDWLGTKDENSTVFVSFGSEYFLSKEDMEEVAFALELSNVNFIWVARFPKGEERNLEDALPKGFLERIGERGRVLDKFAPQPRILNHPSTGGFISHCGWNSAMESIDFGVPIIAMPMHLDQPMNARLIVELGVAVEIVRDDDGKIHRGEIAETLKGVITGKTGEKLRAKVRDISKNLKTIRDEEMDAAAEELIQLCRNGN
**Q.** What does the source list for B2?
**A.** Steviol glycoside conversion in reaction mixture: Reb UNK ([4]; Reb UNK later identified as reb D2): 23.3 % area; Steviol glycoside conversion in reaction mixture: Reb A ([4]; remaining substrate): 46.7 % area; Rubusoside conv. (reactiontime) [5]: 70% (45 h.); LC-MS, peak area ratio (%) Reb D [6]: 0.54%; LC-MS, peak area ratio (%) Reb E [6]: 49.68%; LC-MS, peak area ratio (%) Stev [6]: 25.24%; LC-MS, peak area ratio (%) Unknown peak #1 (MW966) RT = 22.60 min [6]: 3.97%; LC-MS, peak area ratio (%) Unknown peak #2 (MW966) RT = 26.50 min [6]: 20.56%; LC-MS, peak area ratio (%) Reb D [7]: 3.45%; LC-MS, peak area ratio (%) Reb E [7]: 35.88%; LC-MS, peak area ratio (%) Rub [7]: 7.82%; LC-MS, peak area ratio (%) Stev [7]: 2.37%; LC-MS, peak area ratio (%) Unknown peak #1 (MW804) RT 30.70 min [7]: 20.38%; LC-MS, peak area ratio (%) Unknown peak #2 (MW804) RT 49.50 min [7]: 27.75%; LC-MS, peak area ratio (%) Unknown peak #3 (MW804) RT 50.40 min [7]: 2.35%; Steviol glycoside conversion in reaction mixture: Reb UNK ([8]; Reb UNK later identified as reb D2, listed as S115N05A7): 19.93 % area; Steviol glycoside conversion in reaction mixture: Reb UNK ([8]; Reb UNK later identified as reb D2, listed as S129N04): 21.22 % area; Steviol glycoside conversion in reaction mixture: Reb D ([8]; listed as S115N05A7): 20.35 % area; Steviol glycoside conversion in reaction mixture: Reb D ([8]; listed as S129N04): 23.73 % area; Steviol glycoside conversion in reaction mixture: Reb A ([8]; listed as S115N05A7): 53.24 % area; Steviol glycoside conversion in reaction mixture: Reb A ([8]; listed as S129N04): 49.00 % area; Steviol glycoside conversion in reaction mixture: Unknown@RT3.5 ([8]; unknown later identified as reb M2, listed as S115N05A7): 6.47 % area; Steviol glycoside conversion in reaction mixture: Unknown@RT3.5 ([8]; unknown later identified as reb M2, listed as S129N04): 6.05 % area

B3: UGT91D2: UDP-glucosyltransferase, Genbank ACE87855.1, in-vitro produced (protein, UniProt B3VI56 1-473, looked up)
UDP-glycosyltransferase 91D2: MATSDSIVDDRKQLHVATFPWLAFGHILPYLQLSKLIAEKGHKVSFLSTTRNIQRLSSHISPLINVVQLTLPRVQELPEDAEATTDVHPEDIPYLKKASDGLQPEVTRFLEQHSPDWIIYDYTHYWLPSIAASLGISRAHFSVTTPWAIAYMGPSADAMINGSDGRTTVEDLTTPPKWFPFPTKVCWRKHDLARLVPYKAPGISDGYRMGLVLKGSDCLLSKCYHEFGTQWLPLLETLHQVPVVPVGLLPPEVPGDEKDETWVSIKKWLDGKQKGSVVYVALGSEVLVSQTEVVELALGLELSGLPFVWAYRKPKGPAKSDSVELPDGFVERTRDRGLVWTSWAPQLRILSHESVCGFLTHCGSGSIVEGLMFGHPLIMLPIFGDQPLNARLLEDKQVGIEIPRNEEDGCLTKESVARSLRSVVVEKEGEIYKANARELSKIYNDTKVEKEYVSQFVDYLEKNTRAVAIDHES
modifications: in vitro produced
notes: UDP-glucosyltransferase, Genbank ACE87855.1, in-vitro produced
**Q.** Which “conversion of rebaudioside A to rebaudioside D (HPLC)” value [9] does the source give for B3 here?
**A.** The value was 4.7%.
